Biological target: T1, RALA peptide
T1 chain: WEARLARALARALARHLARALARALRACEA

B1: proteinase K (protein)
chain: AAQTNAPWGLARISSTSPGTSTYYYDESAGQGSCVYVIDTGIEASHPEFEGRAQMVKTYYYSSRDGNGHGTHCAGTVGSRTYGVAKKTQLFGVKVLDDNGSGQYSTIIAGMDFVASDKNNRNCPKGVVASLSLGGGYSSSVNSAAARLQSSGVMVAVAAGNNNADARNYSPASEPSVCTVGASDRYDRRSSFSNYGSVLDIFGPGTSILSTWIGGSTRSISGTSMATPHVAGLAAYLMTLGKTTAASACRYIADTANKGDLSNIPFGTVNLLAYNNYQA
release of DNA from RALA/pEGFP-N1 nanoparticles on agarose gel after 30 min with 20% proteinase K (0.1 mg/mL): the RALA peptide is cleaved by proteinase K thus releasing the DNA into solution
